Holding throughout (assay): EMSA
Series [1] addresses T1, His6-MmfR (Streptomyces coelicolor A3(2)) (UniProt Q7APH7).
T1 sequence: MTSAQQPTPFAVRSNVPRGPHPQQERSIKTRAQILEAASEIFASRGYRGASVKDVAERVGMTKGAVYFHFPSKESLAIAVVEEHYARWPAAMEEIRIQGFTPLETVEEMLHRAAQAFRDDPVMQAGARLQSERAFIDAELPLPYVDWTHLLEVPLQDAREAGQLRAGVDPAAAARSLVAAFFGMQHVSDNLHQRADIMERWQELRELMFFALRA

The target in series [2] is T2, MmfR Y144F Y144F (Streptomyces coelicolor A3(2)) (UniProt Q7APH7).
T2 sequence: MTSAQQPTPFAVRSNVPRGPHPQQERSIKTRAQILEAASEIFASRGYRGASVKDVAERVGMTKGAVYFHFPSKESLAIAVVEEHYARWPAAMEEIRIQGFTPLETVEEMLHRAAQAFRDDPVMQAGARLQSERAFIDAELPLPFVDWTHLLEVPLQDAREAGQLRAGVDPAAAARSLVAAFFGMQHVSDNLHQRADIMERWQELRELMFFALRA

Series [3] has as its target T3, MmfR Q130E Q130E (Streptomyces coelicolor A3(2)) (UniProt Q7APH7).
T3 sequence: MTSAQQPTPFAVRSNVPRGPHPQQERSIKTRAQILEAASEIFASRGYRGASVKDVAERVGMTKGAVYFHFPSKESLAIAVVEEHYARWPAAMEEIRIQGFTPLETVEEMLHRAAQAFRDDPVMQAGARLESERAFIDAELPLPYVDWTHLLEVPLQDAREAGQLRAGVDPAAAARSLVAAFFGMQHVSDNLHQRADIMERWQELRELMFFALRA

Series [4] deals with T4, MmfR Y85F Y85F (Streptomyces coelicolor A3(2)) (UniProt Q7APH7).
T4 sequence: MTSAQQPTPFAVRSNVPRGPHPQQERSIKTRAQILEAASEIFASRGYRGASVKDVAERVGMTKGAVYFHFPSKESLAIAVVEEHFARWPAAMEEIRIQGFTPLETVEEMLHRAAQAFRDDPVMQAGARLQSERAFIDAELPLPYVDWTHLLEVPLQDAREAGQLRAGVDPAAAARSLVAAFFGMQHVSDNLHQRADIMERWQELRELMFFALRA

The target of the next series is T5, His6-MmfR (Streptomyces coelicolor A3(2), UniProt Q7APH7 1-214).
T5 sequence: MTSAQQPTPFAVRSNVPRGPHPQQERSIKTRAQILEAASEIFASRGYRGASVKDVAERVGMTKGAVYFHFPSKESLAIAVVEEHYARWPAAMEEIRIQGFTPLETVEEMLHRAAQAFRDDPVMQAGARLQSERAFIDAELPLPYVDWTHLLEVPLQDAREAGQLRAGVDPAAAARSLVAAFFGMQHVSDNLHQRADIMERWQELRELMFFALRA

For “GGCGCCTCACAGTGTCAAACCTTCCCGAAGGTTTTTTATGACTCGTAACGGAGAGTTAAACCGGGGCTTACGAGAGCGGCGGGGCCTCGGTGTTTGGACCGCAACTCGGCGGGGCCCTGGTGCTGAGAACACCACGTCTGAGGCCCCTAGCAGAAGTTCGCTCTGGCAGCCTTCGCACGACCCTGCCGATACTCGCCAGCGATCCGAACCACTCGCCGAAGGAGTTCACC (double strand) [mmyB-mmyY intergenic region, 230 bp]”, the binding result in series [1] is “binds”.

Regarding “GGCGCCTCACAGTGTCAAACCTTCCCGAAGGTTTTTTATGACTCGTAACGGAGAGTTAAACCGGGGCTTACGAGAGCGGCGGGGCCTCGGTGTTTGGA (double strand) [mmyB-mmyY internal fragment, 98 bp]”, the binding result in series [1] was “binds”.

Turning to “GGACCACCGGCTGGCTTGCCGCGCTGCAAGACAGCCGGGATCGGTAAGCTGACCGAGAGAAATATACCTGCGGGAAGGTATTATGCAATGGGTTTCCGTG (double strand) [mmfL-mmfR internal fragment, 100 bp]”, the binding entry in series [1] is reported as “binds”.

“GGCTGCCTTCCTTCGTGTGTGCGGGCCCTGCGGGCGCCATGCTGGTGCGACCCGGGTCGGCACGGAAACCCATTGCATAATACCTTCCCGCAGGTATATTTCTCTCGGTCAGCTTACCGATCCCGGCTGTCTTGCAGCGCGGCAAGCCAGCCGGTGGTCCCGTACGAGGACACACCGGGAGATGTAGCGCCCCT (double strand) [mmfL-mmfR intergenic region, 194 bp]”: the binding result in series [2], in series [3], in series [4] and in series [1] was “binds” each time.

B1: MARE1 hairpin (structured_DNA)
DNA: GCAATATACCTGCGGGAAGGTATTATGCGAGGCATAATACCTTCCCGCAGGTATATTGC
For B1, the binding result in the series with His6-MmfR is recorded as “binds”.

B2: MARE2 hairpin (structured_DNA)
DNA: GCAAAAAACCTTCGGGAAGGTTTGACGCGAGGCGTCAAACCTTCCCGAAGGTTTTTTGC
As to B2, in the series with His6-MmfR, the binding result is “binds”.

Source of the values: article doi:10.1101/2020.05.02.073981.
